The data set deals with the molecule itself. The data set can be described thus: cross-linking.

B1: His-hArc/Arg3.1 (recombinant human activity-regulated cytoskeleton-associated protein), wild type (natural protein, UniProt Q7LC44 2-396, looked up)
chain: ELDHRTSGGLHAYPGPRGGQVAKPNVILQIGKCRAEMLEHVRRTHRHLLAEVSKQVERELKGLHRSVGKLESNLDGYVPTSDSQRWKKSIKACLCRCQETIANLERWVKREMHVWREVFYRLERWADRLESTGGKYPVGSESARHTVSVGVGGPESYCHEADGYDYTVSPYAITPPPAAGELPGQEPAEAQQYQPWVPGEDGQPSPGVDTQIFEDPREFLSHLEEYLRQVGGSEEYWLSQIQNHMNGPAKKWWEFKQGSVKNWVEFKKEFLQYSEGTLSREAIQRELDLPQKQGEPLDQFLWRKRDLYQTLYVDADEEEIIQYVVGTLQPKLKRFLRHPLPKTLEQLIQRGMEVQDDLEQAAEPAGPHLPVEDEAETLTPAPNSESVASDRTQPE
For B1, the binding result is “binds”.

B2: His-hArc/Arg3.1 C94/98A (natural protein, human, UniProt Q7LC44 2-396, looked up)
chain: ELDHRTSGGLHAYPGPRGGQVAKPNVILQIGKCRAEMLEHVRRTHRHLLAEVSKQVERELKGLHRSVGKLESNLDGYVPTSDSQRWKKSIKAALCRAQETIANLERWVKREMHVWREVFYRLERWADRLESTGGKYPVGSESARHTVSVGVGGPESYCHEADGYDYTVSPYAITPPPAAGELPGQEPAEAQQYQPWVPGEDGQPSPGVDTQIFEDPREFLSHLEEYLRQVGGSEEYWLSQIQNHMNGPAKKWWEFKQGSVKNWVEFKKEFLQYSEGTLSREAIQRELDLPQKQGEPLDQFLWRKRDLYQTLYVDADEEEIIQYVVGTLQPKLKRFLRHPLPKTLEQLIQRGMEVQDDLEQAAEPAGPHLPVEDEAETLTPAPNSESVASDRTQPE
Consider B2, for which the binding result was “binds”.

For the origin of these results see doi:10.1101/2025.07.20.665809 (bioRxiv, 2025).
